Assay results reported in patent US20210061914A1 (published 2021).
Changes are numbered by the printed parent chain.

B1: scFv R3G10-P1A07 (scFv, V domains shown)
VH: EVQLLESGGGLVKPGGSLRLSCAASGFTFSSYWMSWVRQAPGKGLEWVSGISARSGRTYYADSVKGRFTISRDDSKNTLYLQMNSLKTEDTAVYYCARDQDTIFGVVITWFDPWGQGTLVTVSS
VL: DIQMTQSPSSLSASVGDRVTITCRASQGISNYLAWYQQKPGKAPKLLIYAASSLQGGVPSRFSGSGSGTDFTLTISSLQPEDFATYYCQQYFTTPYTFGQGTKLEIK
notes: scFv
B2: scFv R3G10-P1B07 (scFv, V domains shown)
VH: QVQLVQSGAEVKKPGASVKVSCKASGYTFTSYYMHWVRQAPGQGLEWMGIIHPGGGTTSYAQKFQGRVTMTRDTSTSTVYMELSSLRSEDTAVYYCARDKVYGDGFDPWGQGTLVTVSS
VL: DIQMTQSPSSLSASVGDRVTITCRASQSISRWLAWYQQKPGKAPKLLIFDASRLQSGVPSRFSGSGSGTDFTLTISSLQPEDFATYYCQQAEAFPYTFGQGTKVEIK
notes: scFv
B3: scFv R3G10-P1E12 (scFv, V domains shown)
VH: QVQLVQSGAEVKKPGASVKVSCKASGYIFTGYYMHWVRQAPGQGLEWMGMIGPSDGSTSYAQKFQGRVTMTRDTSTSTVYMELSSLRSEDTAVYYCAREDDSMDVWGKGTTVTVSS
VL: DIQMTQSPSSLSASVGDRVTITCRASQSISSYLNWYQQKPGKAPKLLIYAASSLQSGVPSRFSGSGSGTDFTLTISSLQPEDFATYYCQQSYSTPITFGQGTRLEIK
notes: scFv
B4: scFv R3G10-P4E12 (scFv, V domains shown)
VH: B3 VH with I28T, K63R, D100E, S102G, K108Q
VL: B1 VL with N31T, A50D, G56S, F92Y, T93S, T94Y, Y96W, K103R
notes: scFv
B5: scFv R3G10-P1F06 (scFv, V domains shown)
VH: B3 VH with I28T, T30I, E99D, D100S, D101S, S102G, M103L, V105P, K108Q, T111L
VL: B1 VL with G28S, A34N, A50K, Q55E, G56S, Y91S, F92Y, T93I, T94I
notes: scFv
B6: scFv R3G10-P1H01 (scFv, V domains shown)
VH: B3 VH with I28T, E99G, D100V, D101G, S102N, M103L, V105Y, K108Q, T111L
VL: B1 VL with G28S, A34N, G56S, Q89H, Y91T, F92Y, T93S, Y96L, L104V
notes: scFv
B7: scFv R3G10-P1H08 (scFv, V domains shown)
VH: QVQLVQSGAEVKKPGASVKVSCKASGVTFSTSAISWVRQAPGQGLEWMGWISPYNGNTDYAQMLQGRVTMTRDTSTSTVYMELSSLRSEDTAVYYCARDAHQYYDFWSGYYSGTYYYGMDVWGQGTTVTVSS
VL: B1 VL with A50S, S53N, G56S, Y91A, F92Y, T93S, T94F, Y96W, L104V
notes: scFv
B8: scFv R3G10-P2C04 (scFv, V domains shown)
VH: QVQLVQSGAEVKKPGASVKVSCKASGGTFSNSIINWVRQAPGQGLEWMGWMNPNSGNTNYAQKFQGRVTMTRDTSTSTVYMELSSLRSEDTAVYYCAREQWPSYWYFDLWGRGTLVTVSS
VL: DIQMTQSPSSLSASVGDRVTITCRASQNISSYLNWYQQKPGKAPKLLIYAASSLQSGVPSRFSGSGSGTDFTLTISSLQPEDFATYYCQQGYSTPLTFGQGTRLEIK
notes: scFv
B9: scFv R3G10-P2G11 (scFv, V domains shown)
VH: QVQLVQSGAEVKKPGASVKVSCKASGGTFSTHDINWVRQAPGQGLEWMGVINPSGGSAIYAQKFQGRVTMTRDTSTSTVYMELSSLRSEDTAVYYCARDRGYSYGYFDYWGQGTLVTVSS
VL: B2 VL with S28D, W32Y, F49Y, R53N, Q55E, S56T, E92N, A93S, Y96R
notes: scFv
B10: scFv R3G10-P3E04 (scFv, V domains shown)
VH: QVQLVQSGAEVKKPGASVKVSCKASGNTFIGYYVHWVRQAPGQGLEWVGIINPNGGSISYAQKFQGRVTMTRDTSTSTVYMELSSLRSEDTAVYYCARGSGDPNYYYYYGLDVWGQGTTVTVSS
VL: B1 VL with R24Q, G28D, A34N, S53N, G56S, Y91A, F92N, T93S, T94L, L104V
notes: scFv
B11: scFv R3G10-P4A02 (scFv, V domains shown)
VH: QVQLVQSGAEVKKPGASVKVSCKASGYTLSYYYMHWVRQAPGQGLEWMGMIGPSDGSTSYAQRFQGRVTMTRDTSTGTVYMELSSLRSEDTAVYYCARDTGDHFDYWGQGTLVTVSS
VL: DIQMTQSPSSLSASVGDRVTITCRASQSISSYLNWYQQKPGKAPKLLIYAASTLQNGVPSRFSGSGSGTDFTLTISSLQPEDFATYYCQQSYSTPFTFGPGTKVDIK
notes: scFv
B12: scFv R3G10-P4C05 (scFv, V domains shown)
VH: B3 VH with I28T, M50I, S59T, E99A, D100E, D101N, S102G, K108Q
VL: DIQMTQSPSSLSASVGDRVTITCRASQRISSYLNWYQQKPGKAPKLLIYSASTLQSGVPSRFSGSGSGTDFTLTISSLQPEDFATYYCQQSYSTPFTFGPGTKVDIK
notes: scFv
B13: scFv R3G10-P4D04 (scFv, V domains shown)
VH: QVQLVQSGAEVKKPGASVKVSCKASGYTFTGYYVHWVRQAPGQGLEWMGIIAPSDGSTNYAQKFQGRVTMTRDTSTSTVYMELSSLRSEDTAVYYCARDPGGYMDVWGKGTTVTVSS
VL: DIQMTQSPSSLSASVGDRVTITCRASQSISSYLAWYQQKPGKAPKLLIYDASKLETGVPSRFSGSGSGTDFTLTISSLQPEDFATYYCQQSYGVPTFGQGTKLEIK
notes: scFv
B14: scFv R3G10-P4D10 (scFv, V domains shown)
VH: B3 VH with I28T, M34L, E99D, D100G, S102A, M103F, V105I, K108Q, T111M
VL: B12 VL with R28G, Y32W, N34A, S50D, T53N, Q55E, S56T, F96L, P100G, D105E
notes: scFv
B15: scFv R3G10-P4E07 (scFv, V domains shown)
VH: QVQLVQSGAEVKKPGSSVKVSCKASGYTFTGYYMHWVRQAPGQGLEWMGRISPSDGSTTYAPKFQGRVTITADESTSTAYMELSSLRSEDTAVYYCARDMGDAFDIWGQGTTVTVSS
VL: not shown
notes: scFv
B16: scFv R3G10-P4G06 (scFv, V domains shown)
VH: B11 VH
VL: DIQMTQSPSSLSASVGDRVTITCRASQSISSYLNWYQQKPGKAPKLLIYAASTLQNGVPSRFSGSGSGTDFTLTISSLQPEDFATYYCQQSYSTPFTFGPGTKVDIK
notes: scFv; printed VH and VL equal those of R3G10-P4A02
B17: scFv R3G10-P5A08 (scFv, V domains shown)
VH: QVQLVQSGAEVKKPGSSVKVSCKASGGTFNNFAISWVRQAPGQGLEWMGGIIPIFDATNYAQKFQGRVTFTADESTSTAYMELSSLRSEDTAVYYCARGEYSSGFFFVGWFDLWGRGTQVTVSS
VL: not shown
notes: scFv
B18: scFv R3G10-P5C08 (scFv, V domains shown)
VH: QVQLVQSGAEVKKPGASVKVSCKASGYNFTGYYMHWVRQAPGQGLEWMGIIAPSDGSTNYAQKFQGRVTMTRDTSTSTVYMELSSLRSEDTAVYYCARETGDDAFDIWGQGTMVTVSS
VL: not shown
notes: scFv
B19: scFv G8-P1A03 (scFv, V domains shown)
VH: QVQLVQSGAEVKKPGASVKVSCKASGGTFSRSAITWVRQAPGQGLEWMGWINPNSGATNYAQKFQGRVTMTRDTSTSTVYMELSSLRSEDTAVYYCARDDYGDYVAYFQHWGQGTLVTVSS
VL: B13 VL with S30T, A34N, K53N, S91N, G93N, V94S, P95V
notes: scFv
B20: scFv G8-P1A04 (scFv, V domains shown)
VH: QVQLVQSGAEVKKPGASVKVSCKASGYPFIGQYLHWVRQAPGQGLEWMGIINPSGDSATYAQKFQGRVTMTRDTSTSTVYMELSSLRSEDTAVYYCARDLSYYYGMDVWGQGTTVTVSS
VL: B12 VL with R24W, R28G, N34A, S50A, T53S, S93N, F96W
notes: scFv
B21: scFv G8-P1A06 (scFv, V domains shown)
VH: QVQLVQSGAEVKKPGASVKVSCKASGYTFTNYYMHWVRQAPGQGLEWMGWMNPIGGGTGYAQKFQGRVTMTRDTSTSTVYMELSSLRSEDTAVYYCARVYDFWSVLSGFDIWGQGTLVTVSS
VL: B1 VL with G28A, Y32S, S53T, G56S, Q89G, Y91S, F92Y, T93S, Y96P
notes: scFv
B22: scFv G8-P1B03 (scFv, V domains shown)
VH: EVQLLESGGGLVQPGGSLRLSCAASGFTFSDYYMSWVRQAPGKGLEWVSGINWNGGSTGYADSVKGRFTISRDNSKNTLYLQMNSLRAEDTAVYYCARVEQGYDIYYYYYMDVWGKGTTVTVSS
VL: B12 VL with R28S, S50K, T53S, Q55E, T94A, F96Y
notes: scFv
B23: scFv G8-P1C11 (scFv, V domains shown)
VH: QVQLVQSGAEVKKPGASVKVSCKASGGTLSSYPINWVRQAPGQGLEWMGWISTYSGHADYAQKLQGRVTMTRDTSTSTVYMELSSLRSEDTAVYYCARSYDYGDYLNFDYWGQGTLVTVSS
VL: B12 VL with R24Q, R28D, S31N, S50A, T53S, T94I, F96P, P100G
notes: scFv
B24: scFv G8-P1D02 (scFv, V domains shown)
VH: EVQLLESGGGLVQPGGSLRLSCAASGFTFSSYWMSWVRQAPGKGLEWVSSISGRGDNTYYADSVKGRFTISRDNSKNTLYLQMNSLRAEDTAVYYCARASGSGYYYYYGMDVWGQGTTVTVSS
VL: B12 VL with R24Q, R28D, S31N, S50A, T53S, T94A, F96Y, P100G, D105E
notes: scFv
B25: scFv G8-P1H08 (scFv, V domains shown)
VH: QVQLVQSGAEVKKPGASVKVSCKASGYTFGNYFMHWVRQAPGQGLEWMGMVNPSGGSETFAQKFQGRVTMTRDTSTSTVYMELSSLRSEDTAVYYCAASTWIQPFDYWGQGTLVTVSS
VL: DIQMTQSPSSLSASVGDRVTITCRASQGINSYLAWYQQKPGKAPKLLIYDASNLETGVPSRFSGSGSGTDFTLTISSLQPEDFATYYCQQHNSYPPTFGQGTKLEIK
notes: scFv

Target: HLA-A*01:01_… (HLA-PEPTIDE target G10), soluble (human, enzymatically biotinylated (BirA))
Assay: scFv PPE ELISA

Fold selective binding, target pHLA vs minipool of negative control pHLAs, ≥ 3 fold:
B1
B2
B3
B4
B5
B6
B7
B8
B9
B10
B11
B12
B13
B14
B15
B16
B17
B18

Target: HLA-A*02:01_… (HLA-PEPTIDE target G8), soluble (human, enzymatically biotinylated (BirA) for screening and BLI)
Assay: scFv PPE ELISA

Fold selective binding, target pHLA vs minipool of negative control pHLAs, ≥ 3 fold:
B19
B20
B21
B22
B23
B24
B25
